Results published in the supplement of paper PMC5998384.

Assays:
HeLa Kyoto [1] = test: solubility in G1/S (NP-40 vs SDS abundance) (log2 ratio); higher = more soluble; conditions: cell cycle stage: G1/S
HeLa Kyoto [2] = test: solubility change mitosis vs G1/S (difference of NP-40 vs SDS log2 ratios) (log2 ratio difference); higher = more soluble in mitosis
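For solubility change mitosis vs G1/S (difference of NP-40 vs SDS log2 ratios) in this document: synchronized HeLa Kyoto cells (double thymidine block for G1/S, nocodazole release for mitosis), protein amounts in NP-40 versus SDS lysates quantified by mass spectrometry, three biological replicates.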
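For solubility in G1/S (NP-40 vs SDS abundance) in this document: HeLa Kyoto cells arrested at G1/S by double thymidine block, proteins quantified by TMT10plex mass spectrometry in mild NP-40 versus SDS extracts, three biological replicates.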

| Substance | solubility in G1/S (log2) (HeLa Kyoto [1]) | solubility change mitosis (log2) (HeLa Kyoto [2]) |
| --- | --- | --- |
| MAKAGDKSSSSGKKSLKRKAAAEELQEAAGAGDGATENGVQPPKAAAFPPGFSISEIKNKQRRHLMFTRWKQQQRKEKLAAKKKLKKEREALGDKAPPKPVPKTIDNQRVYDETTVDPNDEEVAYDEATDEFASYFNKQTSPKILITTSDRPHGRTVRLCEQLSTVIPNSHVYYRRGLALKKIIPQCIARDFTDLIVINEDRKTPNGLILSHLPNGPTAHFKMSSVRLRKEIKRRGKDPTEHIPEIILNNFTTRLGHSIGRMFASLFPHNPQFIGRQVATFHNQRDYIFFRFHRYIFRSEKKVGIQELGPRFTLKLRSLQKGTFDSKYGEYEWVHKPREMDTSRRKFHL [RPF1] | -1.77 | 0.774 |
| MPAPPCASCHAARAALRRPLSGQALCGACFCAAFEAEVLHTVLAGRLLPPGAVVAVGASGGKDSTVLAHVLRALAPRLGISLQLVAVDEGIGGYRDAALAAVRRQAARWELPLTVVAYEDLFGGWTMDAVARSTAGSGRSRSCCTFCGVLRRRALEEGARRVGATHIVTGHNADDMAETVLMNFLRGDAGRLARGGGLGSPGEGGALPRCRPLQFASQKEVVLYAHFRRLDYFSEECVYAPEAFRGHARDLLKRLEAARPSAVLDLVHSAERLALAPAARPPRPGACSRCGALASRALCQACALLDGLNRGRPRLAIGKGRRGLDEEATPGTPGDPARPPASKAVPTF [CTU1] | 0.107 | 0.0895 |
| MKEMSANTVLDSQRQQKHYGITSPISLASPKEIDHIYTQKLIDAMKPFGVFEDEEELNHRLVVLGKLNNLVKEWISDVSESKNLPPSVVATVGGKIFTFGSYRLGVHTKGADIDALCVAPRHVERSDFFQSFFEKLKHQDGIRNLRAVEDAFVPVIKFEFDGIEIDLVFARLAIQTISDNLDLRDDSRLRSLDIRCIRSLNGCRVTDEILHLVPNKETFRLTLRAVKLWAKRRGIYSNMLGFLGGVSWAMLVARTCQLYPNAAASTLVHKFFLVFSKWEWPNPVLLKQPEESNLNLPVWDPRVNPSDRYHLMPIITPAYPQQNSTYNVSTSTRTVMVEEFKQGLAVTDEILQGKSDWSKLLEPPNFFQKYRHYIVLTASASTEENHLEWVGLVESKIRVLVGNLERNEFITLAHVNPQSFPGNKEHHKDNNYVSMWFLGIIFRRVENAESVNIDLTYDIQSFTDTVYRQANNINMLKEGMKIEATHVKKKQLHHYLPAEILQKKKKQSLSDVNRSSGGLQSKRLSLDSSCLDSSRDTDNGTPFNSPASKSDSPSVGETERNSAEPAAVIVEKPLSVPPAQGLSIPVIGAKVDSTVKTVSPPTVCTIPTVVGRNVIPRITTPHNPAQGQPHLNGMSNITKTVTPKRSHSPSIDGTPKRLKDVEKFIRLESTFKDPRTAEERKRKSVDAIGGESMPIPTIDTSRKKRLPSKELPDSSSPVPANNIRVIKNSIRLTLNR [PAPOLG] | -0.0339 | -0.0762 |
| MPVSTSLHQDGSQERPVSLTSTTSSSGSSCDSRSAMEEPSSSEAPAKNGAGSLRSRHLPNSNNNSSSWLNVKGPLSPFNSRAAAGPAHHKLSYLGRVVREIVETERMYVQDLRSIVEDYLLKIIDTPGLLKPEQVSALFGNIENIYALNSQLLRDLDSCNSDPVAVASCFVERSQEFDIYTQYCNNYPNSVAALTECMRDKQQAKFFRDRQELLQHSLPLGSYLLKPVQRILKYHLLLQEIAKHFDEEEDGFEVVEDAIDTMTCVAWYINDMKRRHEHAVRLQEIQSLLINWKGPDLTTYGELVLEGTFRVHRVRNERTFFLFDKTLLITKKRGDHFVYKGNIPCSSLMLIESTRDSLCFTVTHYKHSKQQYSIQAKTVEEKRNWTHHIKRLILENHHATIPQKAKEAILEMDSYYPNRYRCSPERLKKAWSSQDEVSTNVRQGRRQSEPTKHLLRQLNEKARAAGMKGKGRRESESSRSSRRPSGRSPTSTEKRMSFESISSLPEVEPDPEAGSEQEVFSAVEGPSAEETPSDTESPEVLETQLDAHQGLLGMDPPGDMVDFVAAESTEDLKALSSEEEEEMGGAAQEPESLLPPSVLDQASVIAERFVSSFSRRSSVAQEDSKSSGFGSPRLVSRSSSVLSLEGSEKGLARHGSATDSLSCQLSPEVDISVGVATEDSPSVNGMEPPSPGCPVEPDRSSCKKKESALSTRDRLLLDKIKSYYENAEHHDAGFSVRRRESLSYIPKGLVRNSISRFNSLPRPDPEPVPPVGSKRQVGSRPTSWALFELPGPSQAVKGDPPPISDAEFRPSSEIVKIWEGMESSGGSPGKGPGQGQANGFDLHEPLFILEEHELGAITEESATASPESSSPTEGRSPAHLARELKELVKELSSSTQGELVAPLHPRIVQLSHVMDSHVSERVKNKVYQLARQYSLRIKSNKPVMARPPLQWEKVAPERDGKSPTVPCLQEEAGEPLGGKGKRKPVLSLFDYEQLMAQEHSPPKPSSAGEMSPQRFFFNPSAVSQRTTSPGGRPSARSPLSPTETFSWPDVRELCSKYASRDEARRAGGGRPRGPPVNRSHSVPENMVEPPLSGRVGRCRSLSTKRGRGGGEAAQSPGPLPQSKPDGGETLYVTADLTLEDNRRVIVMEKGPLPSPTAGLEESSGQGPSSPVALLGQVQDFQQSAECQPKEEGSRDPADPSQQGRVRNLREKFQALNSVG [PLEKHG3] | -0.79 | -0.239 |
| CEP290 | 0.253 | 0.0705 |
| MAGAATGSRTPGRSELVEGCGWRCPEHGDRVAELFCRRCRRCVCALCPVLGAHRGHPVGLALEAAVHVQKLSQECLKQLAIKKQQHIDNITQIEDATEKLKANAESSKTWLKGKFTELRLLLDEEEALAKKFIDKNTQLTLQVYREQADSCREQLDIMNDLSNRVWSISQEPDPVQRLQAYTATEQEMQQQMSLGELCHPVPLSFEPVKSFFKGLVEAVESTLQTPLDIRLKESINCQLSDPSSTKPGTLLKTSPSPERSLLLKYARTPTLDPDTMHARLRLSADRLTVRCGLLGSLGPVPVLRFDALWQVLARDCFATGRHYWEVDVQEAGAGWWVGAAYASLRRRGASAAARLGCNRQSWCLKRYDLEYWAFHDGQRSRLRPRDDLDRLGVFLDYEAGVLAFYDVTGGMSHLHTFRATFQEPLYPALRLWEGAISIPRLP [TRIM14] | -0.209 | -0.0649 |
| MAGQEDPVQREIHQDWANREYIEIITSSIKKIADFLNSFDMSCRSRLATLNEKLTALERRIEYIEARVTKGETLT [BRK1] | -0.551 | 0.228 |
| MGSRPPCGATSSARRACQFPAPMAAAREPELPQEAPATEPAPPPACRFFLEGRCRFGARCRQPHPGAPAPPGREAQPEAGAKKPPLRTAADVIQRIRWDPRLDPADFSVGYVDRFLGVREEPFSAFCWDQPLAALGPGVLAVPQHRVRFFRFHGRLVWDRASRTDLVFGSGSAAGRGPTILDAPNTEGAHGAEGAEWTLAGTGQEAQAAPKRGSTRPLCTGHQEPGVEEPGELEAAQERALGTAADLGTLAPRGRLAGVTEEALKPTAATRTTLLGGKEAQALGVPGGSAETTEAEWGPAAWPEDKRARLSVAAPCQPRPTHFVALMVTEPGLQAEVTKAQEYLVHVAPHCANFLVPSQNLHLTLALLRLAGAGEEAAAIGALRRALLAPGLNAPPRLSFRKLVLLGPHVLCAPPSPTLESMAQVLSQRLEAEGLSTLQSPGQLHPHLTVAKVPHGSQVHLPKLEFTLSQEVGCQPLQTLWLCRIGRTGGPFQPLAEIRLE [LENG9] | 0.366 | -0.034 |
| MEEERGSALAAESALEKNVAELTVMDVYDIASLVGHEFERVIDQHGCEAIARLMPKVVRVLEILEVLVSRHHVAPELDELRLELDRLRLERMDRIEKERKHQKELELVEDVWRGEAQDLLSQIAQLQEENKQLMTNLSHKDVNFSEEEFQKHEGMSERERQVMKKLKEVVDKQRDEIRAKDRELGLKNEDVEALQQQQTRLMKINHDLRHRVTVVEAQGKALIEQKVELEADLQTKEQEMGSLRAELGKLRERLQGEHSQNGEEEPETEPVGEESISDAEKVAMDLKDPNRPRFTLQELRDVLHERNELKSKVFLLQEELAYYKSEEMEEENRIPQPPPIAHPRTSPQPESGIKRLFSFFSRDKKRLANTQRNVHIQESFGQWANTHRDDGYTEQGQEALQHL [RILPL1] | 0.246 | -0.0361 |
| MKLHCEVEVISRHLPALGLRNRGKGVRAVLSLCQQTSRSQPPVRAFLLISTLKDKRGTRYELRENIEQFFTKFVDEGKATVRLKEPPVDICLSKAISSSLKGFLSAMRLAHRGCNVDTPVSTLTPVKTSEFENFKTKMVITSKKDYPLSKNFPYSLEHLQTSYCGLVRVDMRMLCLKSLRKLDLSHNHIKKLPATIGDLIHLQELNLNDNHLESFSVALCHSTLQKSLRSLDLSKNKIKALPVQFCQLQELKNLKLDDNELIQFPCKIGQLINLRFLSAARNKLPFLPSEFRNLSLEYLDLFGNTFEQPKVLPVIKLQAPLTLLESSARTILHNRIPYGSHIIPFHLCQDLDTAKICVCGRFCLNSFIQGTTTMNLHSVAHTVVLVDNLGGTEAPIISYFCSLGCYVNSSDMLK [PPIL5] | -0.0487 | -0.0159 |
| CBWD1 | 0.26 | -0.0771 |
| MAAGGSGGRASCPPGVGVGPGTGGSPGPSANAAATPAPGNAAAAAAAAAAAAAAPGPTPPAPPGPGTDAQAAGAERAEEAAGPGAAALQREAAYNWQASKPTVQERFAFLFNNEVLCDVHFLVGKGLSSQRIPAHRFVLAVGSAVFDAMFNGGMATTSTEIELPDVEPAAFLALLKFLYSDEVQIGPETVMTTLYTAKKYAVPALEAHCVEFLKKNLRADNAFMLLTQARLFDEPQLASLCLENIDKNTADAITAEGFTDIDLDTLVAVLERDTLGIREVRLFNAVVRWSEAECQRQQLQVTPENRRKVLGKALGLIRFPLMTIEEFAAGPAQSGILVDREVVSLFLHFTVNPKPRVEFIDRPRCCLRGKECSINRFQQVESRWGYSGTSDRIRFSVNKRIFVVGFGLYGSIHGPTDYQVNIQIIHTDSNTVLGQNDTGFSCDGSASTFRVMFKEPVEVLPNVNYTACATLKGPDSHYGTKGLRKVTHESPTTGAKTCFTFCYAAGNNNGTSVEDGQIPEVIFYT [BTBD2] | -0.317 | 0.0341 |
| MEDERSFSDICGGRLALQRRYYSPSCREFCLSCPRLSLRSLTAVTCTVWLAAYGLFTLCENSMILSAAIFITLLGLLGYLHFVKIDQETLLIIDSLGIQMTSSYASGKESTTFIEMGKVKDIVINEAIYMQKVIYYLCILLKDPVEPHGISQVVPVFQSAKPRLDCLIEVYRSCQEILAHQKATSTSP [PIGH] | -0.116 | 0.146 |
| MDEKTKKAEEMALSLTRAVAGGDEQVAMKCAIWLAEQRVPLSVQLKPEVSPTQDIRLWVSVEDAQMHTVTIWLTVRPDMTVASLKDMVFLDYGFPPVLQQWVIGQRLARDQETLHSHGVRQNGDSAYLYLLSARNTSLNPQELQRERQLRMLEDLGFKDLTLQPRGPLEPGPPKPGVPQEPGRGQPDAVPEPPPVGWQCPGCTFINKPTRPGCEMCCRARPEAYQVPASYQPDEEERARLAGEEEALRQYQQRKQQQQEGNYLQHVQLDQRSLVLNTEPAECPVCYSVLAPGEAVVLRECLHTFCRECLQGTIRNSQEAEVSCPFIDNTYSCSGKLLEREIKALLTPEDYQRFLDLGISIAENRSAFSYHCKTPDCKGWCFFEDDVNEFTCPVCFHVNCLLCKAIHEQMNCKEYQEDLALRAQNDVAARQTTEMLKVMLQQGEAMRCPQCQIVVQKKDGCDWIRCTVCHTEICWVTKGPRWGPGGPGDTSGGCRCRVNGIPCHPSCQNCH [RBCK1] | 0.08 | -0.0181 |
